Reference: US20120082622A1 (Janssen / Centocor, published 2012)

Target: T1, CCR4 endogenously expressed on CCRF-CEM cells (UniProt P51679 1-360, limits assumed)
T1 sequence (looked up): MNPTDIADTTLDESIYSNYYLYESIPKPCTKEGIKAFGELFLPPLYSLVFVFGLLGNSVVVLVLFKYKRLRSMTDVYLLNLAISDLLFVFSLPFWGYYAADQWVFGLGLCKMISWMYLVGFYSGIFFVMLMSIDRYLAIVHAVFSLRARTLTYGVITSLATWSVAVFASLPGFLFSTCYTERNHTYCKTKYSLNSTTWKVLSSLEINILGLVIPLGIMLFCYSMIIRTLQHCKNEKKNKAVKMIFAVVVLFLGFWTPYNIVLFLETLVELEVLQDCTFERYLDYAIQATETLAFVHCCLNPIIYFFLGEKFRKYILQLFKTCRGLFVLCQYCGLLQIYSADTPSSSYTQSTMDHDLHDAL
Test: cell-based or functional assay

B1: mature Macaca fascicularis CCL17 (cynoCCL17), refolded from E. coli inclusion bodies (ligand)
chain: ARGTNVGRECCLKYFKGAIPLRKLKTWYQTSEDCSRDAIVFVTVQNKAICSDPNDKKVKKALKYLQSL
How did the “calcium flux of CCRF-CEM cells (Fluo-8 NW dye fluorescence), EC50” value turn out when B1 was run?
The value was 0.665 ng/mL.
